B1: SEQ ID NO. 1026/1027: CYP450 enzyme (DNA/protein SEQ ID NO) producing 11-OH cucurbitadienol (protein, listed as Cucumis sativus)
chain: MWTILLGLATLAIAYYIHWVNKWKDSKFNGVLPPGTMGLPLIGETIQLSRPSDSLDVHPFIQRKVKRYGPIFKTCLAGRPVVVSTDAEFNHYIMLQEGRAVEMWYLDTLSKFFGLDTEWLKALGLIHKYIRSITLNHFGAESLRERFLPRIEESARETLHYWSTQTSVEVKESAAAMVFRTSIVKMFSEDSSKLLTEGLTKKFTGLLGGFLTLPLNLPGTTYHKCIKDMKQIQKKLKDILEERLAKGVKIDEDFLGQAIKDKESQQFISEEFIIQLLFSISFASFESISTTLTLILNFLADHPDVVKELEAEHEAIRKARADPDGPITWEEYKSMNFTLNVICETLRLGSVTPALLRKTTKEIQIKGYTIPEGWTVMLVTASRHRDPEVYKDPDTFNPWRWKELDSITIQKNFMPFGGGLRHCAGAEYSKVYLCTFLHILFTKYRWRKLKGGKIARAHILRFEDGLYVNFTPKE
B2: SEQ ID NO. 1028/1029: CYP450 enzyme (DNA/protein SEQ ID NO) producing 11-OH cucurbitadienol (protein)
chain: MWTILLGLATLAIAYYIHWVNKWKDSKFNGVLPPGTMGLPLIGETIQLSRPSDSLDVHPFIQSKVKRYGPIFKTCLAGRPVVVSTDAEFNHYIMLQEGRAVEMWYLDTLSKFFGLDTEWLKALGLIHKYIRSITLNHFGAESLRERFLPRIEESARETLHYWSTQPSVEVKESAAAMVFRTSIVKMFSEDSSKLLTAGLTKKFTGLLGGFLTLPLNVPGTTYHKCIKDMKEIQKKLKDILEERLAKGVSIDEDFLGQAIKDKESQQFISEEFIIQLLFSISFASFESISTTLTLILNFLADHPDVAKELEAEHEAIRKARADPDGPITWEEYKSMNFTLNVICETLRLGSVTPALLRKTTKEIQIKGYTIPEGWTVMLVTASRHRDPEVYKDPDTFNPWRWKELDSITIQRNFMPFGGGLRHCAGAEYSKVYLCTFLHILFTKYRWRKLKGGKIARAHILRFEDGLYVNFTPKE
modifications: Cucumis melo
B3: SEQ ID NO. 889/890: CYP450 enzyme (DNA/protein SEQ ID NO) producing 11-OH cucurbitadienol (protein)
chain: MEVHWVCMCAATLLVCYIFGSKFVRNLNGWYYDVKLRRKEHPLPPGDMGWPLMGNLLSFIKDFSSGHPDSFINNLVLKYGRSGIYKTHLFGNPSIIVCEPQMCRRVLTDDVNFKLGYPKSIKELARCRPMIDVSNAEHRLFRRLITSPIVGHKALAMYLERLEEIVINSLEELSSMKHPVELLKEMKKVSFKAIVHVFMGSSNQDIIKKIGSSFTDLYNGMFSIPINVPGFTFHKALEARKKLAKIVQPVVDERRLMIENGQQEGDQRKDLIDILLEVKDENGRKLEDEDISDLLIGLLFAGHESTATSLMWSITYLTQHPHILKKAKEEQEEIMRTRLSSQKQLSFKEIKQMVYLSQVIDETLRCANIAFATFREATADVNINGYIIPKGWRVLIWARAIHMDSEYYPNPEEFNPSRWDDYNAKAGTFLPFGAGSRLCPGADLAKLEISIFLHYFLLNYRLERVNPECHVTSLPVSKPTDNCLAKVMKVSCA
modifications: Pathway step 3 sequence T CYP88D6 (codon optimized)
B4: SEQ ID NO. 1030/1031: CYP450 enzyme (DNA/protein SEQ ID NO) producing 11-OH cucurbitadienol (protein)
chain: MWTIGLCIVAVLVIYLSYRLNKWSNPKCNGILPPGSMGLPLIGETLQLIVPSYSLDLHPFIKKKAQKYGPIFRTSVAGSPIVVSIDPEFNHYIVKQEGRLVELWYLDSFSKLFSTEGENKTNAIGVVHKYIRSIALNHFGVDPLKEKLLPQIEEFVDKALQTWSSHPLVEMKHAASVMIFDFSAKLFISYDAENSPMKMSEKFTNILGGFMSFPLNIPGTTYHKCLKDRNEALSMLRKIFKERINSPKRHFEDLLDQAINDTDKEKFLPEDFIINVVFGLLFASFESISAALSLILNLLAEHPAVLQELTDEHKAILKNRESPNSILTWDEYKSMTFTHQVINEALRLGGVAPGLLRKALKDIEFKGYTIPAGWTIMLVNSAIQLNPNTYKDPLAFNPWRWKDLDSLFVSKNFMPFGGGIRQCVGAEYSKTFLATFLHVLVTKYRWTKVKGGTIVRNPILEFTDGLHIKFSAISN
modifications: Quercus suber
B5: SEQ ID NO. 1052/1053: glycosyltransferase (DNA/protein SEQ ID NO) producing mogroside I from mogrol (protein, listed as Siraitia grosvenorii)
chain: MEKGDTHILVFPFPSQGHINPLLQLSKRLIAKGIKVSLVTTLHVSNHLQLQGAYSNSVKIEVISDGSEDRLETDTMRQTLDRFRQKMTKNLEDFLQKAMVSSNPPKFILYDSTMPWVLEVAKEFGLDRAPFYTQSCALNSINYHVLHGQLKLPPETPTISLPSMPLLRPSDLPAYDFDPASTDTIIDLLTSQYSNIQDANLLFCNTFDKLEGEIIQWMETLGRPVKTVGPTVPSAYLDKRVENDKHYGLSLFKPNEDVCLKWLDSKPSGSVLYVSYGSLVEMGEEQLKELALGIKETGKFFLWVVRDTEAEKLPPNFVESVAEKGLVVSWCSQLEVLAHPSVGCFFTHCGWNSTLEALCLGVPVVAFPQWADQVTNAKFLEDVWKVGKRVKRNEQRLASKEEVRSCIWEVMEGERASEFKSNSMEWKKWAKEAVDEGGSSDKNIEEFVAMLKQT
B6: SEQ ID NO. 1054/1055: glycosyltransferase (DNA/protein SEQ ID NO) producing mogroside I from mogrol (protein, listed as Barbarea vulgaris)
chain: MVSEITHKSYPLHFVLFPFMAQGHMIPMVDIARLLAQRGVKITIVTTPHNAARFENVLSRAIESGLPISIVQVKLPSQEAGLPEGNETFDSLVSMELLVPFFKAVNMLEEPVQKLFEEMSPQPSCIISDFCLPYTSKIAKKFNIPKILFHGMCCFCLLCMHVLRKNREILENLKSDKEHFVVPYFPDRVEFTRPQVPMATYVPGEWHEIKEDIVEADKTSYGVIVNTYQELEPAYANDYKEARSGKAWTIGPVSLCNKVGADKAERGNKADIDQDECLKWLDSKEEGSVLYVCLGSICSLPLSQLKELGLGLEESQRPFIWVVRGWEKNKELLEWFSESGFEERVKDRGLLIKGWSPQMLILAHHSVGGFLTHCGWNSTLEGITSGIPLLTWPLFGDQFCNQKLVVQVLKVGVSAGVEEVTNWGEEEKIGVLVDKEGVKKAVEELMGESDDAKERRKRVKELGQLAQKAVEEGGSSHSNITSLLEDIMQLAQSNN
B7: SEQ ID NO. 1056/1057: glycosyltransferase (DNA/protein SEQ ID NO) producing mogroside I from mogrol (protein, listed as Barbarea vulgaris)
chain: MVSEITHKSYPLHFVLFPFMAQGHMIPMVDIARLLAQRGVKITIVTTPHNAARFENVLSRAIESGLPISIVQVKLPSQEAGLPEGNETFDSLVSTKLLVPFFKAVNMLEEPVQKLFEEMSPQPSCIISDFCLPYTSKIAKKFNIPKILFHGMCCFCLLCMHVLRKNREILENLKSDKEHFVVPYFPDRVEFTRPQVPLATYVPGEWHEIKEDMVEADKTSYGVIVNTYQELEPAYANGYKEARSGKAWTIGPVSLCNKVGADKAERGNKADIDQDECLKWLDSKEEGSVLYVCLGSICSLPLSQLKELGLGLEESQRPFIWVVRGWEKNKELLEWFSESGFEERVKDRGLLIKGWSPQMLILAHHSVGGFLTHCGWNSTLEGITSGVPLLTWPLFGDQFCNQKLVVQVLKVGVSAGVEEVTNWGEEEKIGVLVDKEGVKKAVEELMGESDDAKEIRKRVKELGQLAHKAVEEGGSSHSNITSLLEDIMQLAQPNN

tested on: cucurbitadienol; test: 11-OH cucurbitadienol production from cucurbitadienol by CYP450s expressed in S. cerevisiae, LCMS; format: cell-based; settings: S. cerevisiae strain producing cucurbitadienol and expressing SgCPR; LCMS peak area of product vs. internal reference; hits over vector only control
From the text: (§1) DNA was obtained through gene synthesis either through Genescript, IDT, or Genewiz. For some of the cucurbitadienol synthases, cDNA or genomic DNA was obtained through 10-60 day old seedlings followed by PCR amplification using specific and degenerate primers. DNA was cloned through standard molecular biology techniques or through yeast gap repair cloning (Joska et al., 2014) into one of the following overexpression vectors: pESC-Ura, pESC-His, or pESC-LEU. Gene expression was regulated by one of the following promoters; Gall, Gal10, Tef1, or GDS. Yeast transformation was performed using Zymo Yeast Transformation Kit II. Yeast strains were grown in standard media (YPD or SC) containing the appropriate selection with 2% glucose or 2% galactose for induction of heterologous genes. Yeast strains were grown in shake flask or 96 well plates at 30° ° C., 140-250 rpm. When indicated, lanosterol synthase inhibitor, Ro 48-8071 (Cayman Chemicals) was added (50 ug/ml). Yeast samples producing mogrol precursors, mogrol and mogrosides were processed through one of the following: • Cucurbitadienol and 11-OH Cucurbitadienol: Samples cell pellets were lysed (Yeast Buster) followed by ethyl acetate extraction, drying, and resuspension in methanol. • ·Mogrol and Mogrosides: Samples cell pellets were lysed in 50% ETOH, incubated at 80° C. for 30 min, filtered, dried and resuspended in MeOH for LCMS screening.
For analyzing 11-OH cucurbitadienol, the LCMS method included the use of C8 2.1×100 mm column, gradient 60 to 90% B for 6 minutes at flow rate of 0.55 ml/min. For the enzyme screening, the LCMS method used was a Waters Acquity UPLC Protein BEH C4, 2.1×100 mm, 1.7 μm column and a gradient of 40% to 80% over 5 minutes, 95% B from 5.1 to 5.6 minutes with a flow rate of 0.55 ml/min, and ESI source positive mode single ion monitoring of 425.4.
Additional CYP450s were expressed in S. cerevisiae strain producing cucurbitadienol and expressing SgCPR. DNA and protein sequences for the CYP450 enzymes are shown in SEQ IDs 871-890 and 1024-1049 (see Table 1).

Point of comparison: B3, “Peak Area 11-OH CCB” value 0.649. Against it:
- B1 — higher, 0.9893
- B2 — higher, 0.9703
- B4 — higher, 0.9207

tested on: mogrol; test: Mogroside IA and/or IE production from mogrol by glycosyltransferases expressed in S. cerevisiae, LCMS; format: cell-based; settings: 10 μM mogrol, 2-4 days at 30° C.; identified by LCMS
From the text: as §1
For analyzing Mogroside IIIE & Compound 1, the LCMS method included the use of Fluoro-phenyl 2.1×100 mm column, gradient 15 to 30% B for 6 minutes, at flow rate of 0.55 ml/min. For analyzing yeast production of mogroside I during enzyme screening, the LCMS method used a Phenomenex Kinetex Polar C18, 4.6×100 mm, 2.6 μm column, and a gradient of 25% to 55% B over 3 minutes, and 100% B at 3.5 minutes with a flow rate of 1.5 ml/min. Detection by ESI source negative mode single ion monitoring of 683.4 for mogroside I and 799.4 for mogroside II.
Various glycosyltransferase proteins were expressed in S. cerevisiae grown in the presence of 10 μM mogrol for 2-4 days at 30° C., 140-250 rpm in either shake flask or 96 well plates. Glycosyltransferases leading to production of Mogroside IA (glycosylation of C24-OH position) and/or Mogroside IE (glycosylation of C3-OH position) are provided in Table 6. DNA and protein sequences for the enzymes are provided in SEQ IDs 1050-1071 (see Table 1).

Point of comparison: B6, “Mogroside IA” value 659331. Against it:
- B5 — lower, 1605
- B7 — lower, 200270

Point of comparison: B5, “Mogroside IE” value 22917. Against it:
- B6 — lower, 17857
- B7 — lower, 4690
